In US20180155451A1 (published 2018):

B1: GpH7-B3 variant S298_11K/GpL16-k0 (antibody, human IgG1, kappa)
heavy: not shown
light: DIVMTQSPLSLPVTPGEPASISCQASESLVHSNRNTYLHWYLQKPGQSPQLLIYKVSNRFSGVPDRFSGSGSGTDFTLKISRVEAEDVGVYYCSQNTHVPPTFGQGTKVEIERTVAAPSVFIFPPSDEQLKSGTASVVCLLNNFYPREAKVQWKVDNALQSGNSQESVTEQDSKDSTYSLSSTLTLSKADYEKHKVYACEVTHQGLSSPVTKSFNRGEC
notes: mutation in both H chains; also called Ho Ab S298_11K; S298K
B2: GpH7-B3 variant S324_20W/GpL16-k0 (antibody, human IgG1, kappa)
heavy: not shown
light: B1 light
notes: mutation in both H chains; also called Ho Ab S324_20W; S324W
B3: GpH7-B3 variant S298_03V/GpL16-k0 (antibody, human IgG1, kappa)
heavy: not shown
light: B1 light
notes: mutation in both H chains; also called Ho Ab S298_03V; S298V
B4: GpH7-B3 variant S298_02A/GpL16-k0 (antibody, human IgG1, kappa)
heavy: not shown
light: B1 light
notes: mutation in both H chains; also called Ho Ab S298_02A; S298A
B5: GpH7-B3 variant S324_15Y/GpL16-k0 (antibody, human IgG1, kappa)
heavy: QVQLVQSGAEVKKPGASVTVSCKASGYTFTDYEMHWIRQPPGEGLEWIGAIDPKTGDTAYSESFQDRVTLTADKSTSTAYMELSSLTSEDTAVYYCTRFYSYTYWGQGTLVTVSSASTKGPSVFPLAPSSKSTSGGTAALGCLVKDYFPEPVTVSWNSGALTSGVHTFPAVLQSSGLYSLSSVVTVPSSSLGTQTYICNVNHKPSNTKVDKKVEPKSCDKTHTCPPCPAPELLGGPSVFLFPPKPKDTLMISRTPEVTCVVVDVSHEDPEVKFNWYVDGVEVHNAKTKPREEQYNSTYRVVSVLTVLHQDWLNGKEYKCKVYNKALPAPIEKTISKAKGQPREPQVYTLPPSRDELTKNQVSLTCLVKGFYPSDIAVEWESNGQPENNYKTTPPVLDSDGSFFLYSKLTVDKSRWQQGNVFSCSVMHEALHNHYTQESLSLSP
light: B1 light
notes: mutation in both H chains; also called Ho Ab S324_15Y; S324Y
B6: GpH7-B3 variant S239_14T/GpL16-k0 (antibody, human IgG1, kappa)
heavy: not shown
light: B1 light
notes: mutation in both H chains; also called Ho Ab S239_14T; S239T
B7: GpH7-B3 variant S337_19Q/GpL16-k0 (antibody, human IgG1, kappa)
heavy: not shown
light: B1 light
notes: mutation in both H chains; also called Ho Ab S337_19Q; S337Q
B8: GpH7-B3 variant T335_10E/GpL16-k0 (antibody, human IgG1, kappa)
heavy: not shown
light: B1 light
notes: mutation in both H chains; also called Ho Ab T335_10E; T335E
B9: GpH7-B3 variant S337_10E/GpL16-k0 (antibody, human IgG1, kappa)
heavy: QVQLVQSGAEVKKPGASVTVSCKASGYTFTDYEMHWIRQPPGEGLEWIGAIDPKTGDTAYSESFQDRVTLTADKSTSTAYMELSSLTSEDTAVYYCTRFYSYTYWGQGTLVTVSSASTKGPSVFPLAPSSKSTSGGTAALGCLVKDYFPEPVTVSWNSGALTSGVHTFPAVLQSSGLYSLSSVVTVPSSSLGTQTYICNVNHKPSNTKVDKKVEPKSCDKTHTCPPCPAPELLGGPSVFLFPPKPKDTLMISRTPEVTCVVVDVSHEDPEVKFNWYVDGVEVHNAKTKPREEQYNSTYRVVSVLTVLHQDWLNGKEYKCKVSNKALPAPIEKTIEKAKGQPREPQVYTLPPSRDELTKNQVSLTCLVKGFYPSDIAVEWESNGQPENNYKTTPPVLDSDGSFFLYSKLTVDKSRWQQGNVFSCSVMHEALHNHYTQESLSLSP
light: B1 light
notes: mutation in both H chains; also called Ho Ab S337_10E; S337E
B10: GpH7-B3 variant S324_14T/GpL16-k0 (antibody, human IgG1, kappa)
heavy: not shown
light: B1 light
notes: mutation in both H chains; also called Ho Ab S324_14T; S324T
B11: GpH7-B3 variant S267_09D/GpL16-k0 (antibody, human IgG1, kappa)
heavy: not shown
light: B1 light
notes: mutation in both H chains; also called Ho Ab S267_09D; S267D
B12: GpH7-B3 variant S298_06M/GpL16-k0 (antibody, human IgG1, kappa)
heavy: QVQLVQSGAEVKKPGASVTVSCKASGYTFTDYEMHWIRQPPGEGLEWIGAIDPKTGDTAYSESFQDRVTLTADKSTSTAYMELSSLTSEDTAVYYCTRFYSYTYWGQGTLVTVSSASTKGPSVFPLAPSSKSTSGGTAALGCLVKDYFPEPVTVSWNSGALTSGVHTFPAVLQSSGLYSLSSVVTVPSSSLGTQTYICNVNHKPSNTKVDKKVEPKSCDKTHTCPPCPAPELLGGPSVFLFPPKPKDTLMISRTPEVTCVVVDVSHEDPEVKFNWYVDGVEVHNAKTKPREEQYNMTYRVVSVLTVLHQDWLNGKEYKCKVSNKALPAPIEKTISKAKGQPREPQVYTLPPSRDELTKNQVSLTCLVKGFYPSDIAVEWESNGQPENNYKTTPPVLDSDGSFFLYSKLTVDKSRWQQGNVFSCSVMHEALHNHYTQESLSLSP
light: B1 light
notes: mutation in both H chains; also called Ho Ab S298_06M; S298M
B13: GpH7-B3 variant T335_15Y/GpL16-k0 (antibody, human IgG1, kappa)
heavy: not shown
light: B1 light
notes: mutation in both H chains; also called Ho Ab T335_15Y; T335Y
B14: GpH7-B3 variant S324_08L/GpL16-k0 (antibody, human IgG1, kappa)
heavy: not shown
light: B1 light
notes: mutation in both H chains; also called Ho Ab S324_08L; S324L
B15: GpH7-B3 variant T335_09D/GpL16-k0 (antibody, human IgG1, kappa)
heavy: not shown
light: B1 light
notes: mutation in both H chains; also called Ho Ab T335_09D; T335D
B16: GpH7-B3 variant S337_04F/GpL16-k0 (antibody, human IgG1, kappa)
heavy: not shown
light: B1 light
notes: mutation in both H chains; also called Ho Ab S337_04F; S337F
B17: GpH7-B3 variant S337_09D/GpL16-k0 (antibody, human IgG1, kappa)
heavy: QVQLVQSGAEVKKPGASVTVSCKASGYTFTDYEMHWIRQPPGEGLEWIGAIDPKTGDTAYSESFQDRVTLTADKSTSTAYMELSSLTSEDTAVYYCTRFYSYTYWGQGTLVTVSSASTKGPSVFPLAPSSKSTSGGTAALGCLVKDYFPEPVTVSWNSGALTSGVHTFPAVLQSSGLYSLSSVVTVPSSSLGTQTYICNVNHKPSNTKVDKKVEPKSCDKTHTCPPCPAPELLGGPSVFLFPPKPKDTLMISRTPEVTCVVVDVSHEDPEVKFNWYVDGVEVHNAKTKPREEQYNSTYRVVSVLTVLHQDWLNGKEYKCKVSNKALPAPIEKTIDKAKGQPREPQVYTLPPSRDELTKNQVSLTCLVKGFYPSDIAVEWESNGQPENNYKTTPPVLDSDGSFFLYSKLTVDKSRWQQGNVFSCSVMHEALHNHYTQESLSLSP
light: B1 light
notes: mutation in both H chains; also called Ho Ab S337_09D; S337D
B18: GpH7-B3 variant S298_18N/GpL16-k0 (antibody, human IgG1, kappa)
heavy: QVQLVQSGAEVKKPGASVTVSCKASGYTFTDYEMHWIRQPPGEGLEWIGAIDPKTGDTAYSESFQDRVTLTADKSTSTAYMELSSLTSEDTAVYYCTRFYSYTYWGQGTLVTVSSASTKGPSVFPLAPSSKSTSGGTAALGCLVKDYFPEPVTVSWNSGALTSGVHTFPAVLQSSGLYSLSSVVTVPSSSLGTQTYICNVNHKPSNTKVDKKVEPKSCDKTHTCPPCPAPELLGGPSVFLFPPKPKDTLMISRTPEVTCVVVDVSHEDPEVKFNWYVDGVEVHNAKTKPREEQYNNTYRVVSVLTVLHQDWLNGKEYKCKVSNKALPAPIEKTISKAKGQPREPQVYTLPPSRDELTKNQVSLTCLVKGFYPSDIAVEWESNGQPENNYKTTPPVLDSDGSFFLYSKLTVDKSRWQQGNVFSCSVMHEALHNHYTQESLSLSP
light: B1 light
notes: mutation in both H chains; also called Ho Ab S298_18N; S298N
B19: GpH7-B3 variant T335_11K/GpL16-k0 (antibody, human IgG1, kappa)
heavy: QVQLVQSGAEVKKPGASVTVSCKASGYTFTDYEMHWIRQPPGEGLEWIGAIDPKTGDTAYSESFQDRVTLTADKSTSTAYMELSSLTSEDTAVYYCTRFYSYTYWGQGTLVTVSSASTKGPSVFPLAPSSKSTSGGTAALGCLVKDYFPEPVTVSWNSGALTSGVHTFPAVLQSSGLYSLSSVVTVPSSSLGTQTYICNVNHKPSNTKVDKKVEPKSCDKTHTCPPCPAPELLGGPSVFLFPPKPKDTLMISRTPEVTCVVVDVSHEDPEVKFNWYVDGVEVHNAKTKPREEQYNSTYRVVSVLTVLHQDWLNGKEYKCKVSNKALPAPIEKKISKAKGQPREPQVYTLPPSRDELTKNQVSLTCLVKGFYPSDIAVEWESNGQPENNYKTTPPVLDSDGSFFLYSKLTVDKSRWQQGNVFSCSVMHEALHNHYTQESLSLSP
light: B1 light
notes: mutation in both H chains; also called Ho Ab T335_11K; T335K
B20: GpH7-B3 variant T335_12R/GpL16-k0 (antibody, human IgG1, kappa)
heavy: not shown
light: B1 light
notes: mutation in both H chains; also called Ho Ab T335_12R; T335R
B21: GpH7-B3 variant S298_04F/GpL16-k0 (antibody, human IgG1, kappa)
heavy: not shown
light: B1 light
notes: mutation in both H chains; also called Ho Ab S298_04F; S298F
B22: GpH7-B3 variant S267_16H/GpL16-k0 (antibody, human IgG1, kappa)
heavy: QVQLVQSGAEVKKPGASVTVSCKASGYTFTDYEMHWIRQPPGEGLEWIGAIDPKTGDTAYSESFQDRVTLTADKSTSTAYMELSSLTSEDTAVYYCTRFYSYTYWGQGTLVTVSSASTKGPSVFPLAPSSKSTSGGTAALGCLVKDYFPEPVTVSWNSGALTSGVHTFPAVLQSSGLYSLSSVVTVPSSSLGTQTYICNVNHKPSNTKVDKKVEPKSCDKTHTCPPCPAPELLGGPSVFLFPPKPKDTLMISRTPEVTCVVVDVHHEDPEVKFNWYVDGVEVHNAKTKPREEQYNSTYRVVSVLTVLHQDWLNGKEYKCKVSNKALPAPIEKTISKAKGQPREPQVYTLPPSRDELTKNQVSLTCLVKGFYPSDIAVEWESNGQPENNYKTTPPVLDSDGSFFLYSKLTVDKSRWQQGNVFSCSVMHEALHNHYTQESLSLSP
light: B1 light
notes: mutation in both H chains; also called Ho Ab S267_16H; S267H
B23: GpH7-B3 variant S298_14T/GpL16-k0 (antibody, human IgG1, kappa)
heavy: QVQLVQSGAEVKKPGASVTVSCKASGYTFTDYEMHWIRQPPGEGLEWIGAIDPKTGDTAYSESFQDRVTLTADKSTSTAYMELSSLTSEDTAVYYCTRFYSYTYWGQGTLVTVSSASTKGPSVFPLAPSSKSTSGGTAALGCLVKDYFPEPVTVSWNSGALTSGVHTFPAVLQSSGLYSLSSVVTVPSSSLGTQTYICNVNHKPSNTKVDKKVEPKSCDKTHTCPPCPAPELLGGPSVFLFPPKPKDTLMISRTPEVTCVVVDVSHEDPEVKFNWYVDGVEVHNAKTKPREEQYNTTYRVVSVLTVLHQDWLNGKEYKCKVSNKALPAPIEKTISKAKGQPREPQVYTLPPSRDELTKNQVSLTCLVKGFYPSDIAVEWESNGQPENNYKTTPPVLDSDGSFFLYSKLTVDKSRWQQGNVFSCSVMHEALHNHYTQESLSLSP
light: B1 light
notes: mutation in both H chains; also called Ho Ab S298_14T; S298T
B24: GpH7-B3 variant S337_02A/GpL16-k0 (antibody, human IgG1, kappa)
heavy: not shown
light: B1 light
notes: mutation in both H chains; also called Ho Ab S337_02A; S337A
B25: GpH7-B3 variant S337_06M/GpL16-k0 (antibody, human IgG1, kappa)
heavy: not shown
light: B1 light
notes: mutation in both H chains; also called Ho Ab S337_06M; S337M
B26: GpH7-B3 variant S324_11K/GpL16-k0 (antibody, human IgG1, kappa)
heavy: not shown
light: B1 light
notes: mutation in both H chains; also called Ho Ab S324_11K; S324K
B27: GpH7-B3 variant S239_09D/GpL16-k0 (antibody, human IgG1, kappa)
heavy: not shown
light: B1 light
notes: mutation in both H chains; also called Ho Ab S239_09D; S239D
B28: GpH7-B3 variant S324_19Q/GpL16-k0 (antibody, human IgG1, kappa)
heavy: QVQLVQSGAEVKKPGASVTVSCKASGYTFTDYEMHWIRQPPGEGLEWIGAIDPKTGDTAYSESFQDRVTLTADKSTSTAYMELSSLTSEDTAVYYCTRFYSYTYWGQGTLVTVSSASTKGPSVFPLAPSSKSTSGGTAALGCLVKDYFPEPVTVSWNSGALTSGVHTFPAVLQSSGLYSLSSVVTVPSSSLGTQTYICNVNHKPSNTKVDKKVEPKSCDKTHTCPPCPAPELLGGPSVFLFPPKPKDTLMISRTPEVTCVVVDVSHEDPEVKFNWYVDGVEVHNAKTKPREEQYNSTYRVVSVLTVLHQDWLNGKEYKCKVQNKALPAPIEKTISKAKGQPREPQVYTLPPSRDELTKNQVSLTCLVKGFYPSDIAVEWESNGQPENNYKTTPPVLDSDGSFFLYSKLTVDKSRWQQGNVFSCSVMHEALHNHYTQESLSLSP
light: B1 light
notes: mutation in both H chains; also called Ho Ab S324_19Q; S324Q
B29: GpH7-B3 variant S324_02A/GpL16-k0 (antibody, human IgG1, kappa)
heavy: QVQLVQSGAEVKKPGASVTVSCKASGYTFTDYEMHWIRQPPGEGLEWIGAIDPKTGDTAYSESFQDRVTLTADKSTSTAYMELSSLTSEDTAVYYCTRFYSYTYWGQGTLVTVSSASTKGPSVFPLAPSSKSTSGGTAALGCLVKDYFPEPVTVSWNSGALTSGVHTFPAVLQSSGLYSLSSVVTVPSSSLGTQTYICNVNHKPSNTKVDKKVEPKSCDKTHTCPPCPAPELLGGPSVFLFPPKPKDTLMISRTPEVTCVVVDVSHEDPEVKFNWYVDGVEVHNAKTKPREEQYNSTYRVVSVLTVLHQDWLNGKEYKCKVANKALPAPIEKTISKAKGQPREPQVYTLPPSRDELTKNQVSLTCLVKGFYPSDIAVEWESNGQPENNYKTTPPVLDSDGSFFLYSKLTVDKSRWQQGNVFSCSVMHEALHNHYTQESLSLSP
light: B1 light
notes: mutation in both H chains; also called Ho Ab S324_02A; S324A
B30: GpH7-B3 variant S298_15Y/GpL16-k0 (antibody, human IgG1, kappa)
heavy: not shown
light: B1 light
notes: mutation in both H chains; also called Ho Ab S298_15Y; S298Y

Each binder was assayed against T1, FcγRIa extracellular domain with C-terminal His tag (human, UniProt P12314 16-292) (assay: SPR Biacore, relative FcγRIa binding vs GpH7-B3/GpL16-k0).
T1 construct: extracellular domain; also called FcgRI; CD64; not shown: His tag at the C terminus
T1 sequence (P12314 16-292): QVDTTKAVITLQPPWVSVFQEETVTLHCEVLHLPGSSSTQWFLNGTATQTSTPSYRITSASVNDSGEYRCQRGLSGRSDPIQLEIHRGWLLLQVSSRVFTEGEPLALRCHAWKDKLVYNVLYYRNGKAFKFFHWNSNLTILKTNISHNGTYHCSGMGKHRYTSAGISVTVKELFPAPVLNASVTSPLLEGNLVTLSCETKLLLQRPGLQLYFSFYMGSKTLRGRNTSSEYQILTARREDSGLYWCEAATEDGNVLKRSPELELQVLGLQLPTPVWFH

Ho/Con_1a | Binder
90.4 % of HoCon Ab (=100) | B1
112 % of HoCon Ab (=100) | B2
106 % of HoCon Ab (=100) | B3
106 % of HoCon Ab (=100) | B4
112 % of HoCon Ab (=100) | B5
101 % of HoCon Ab (=100) | B6
105 % of HoCon Ab (=100) | B7
108 % of HoCon Ab (=100) | B8
104 % of HoCon Ab (=100) | B9
112 % of HoCon Ab (=100) | B10
106 % of HoCon Ab (=100) | B11
106 % of HoCon Ab (=100) | B12
106 % of HoCon Ab (=100) | B13
103 % of HoCon Ab (=100) | B14
107 % of HoCon Ab (=100) | B15
105 % of HoCon Ab (=100) | B16
106 % of HoCon Ab (=100) | B17
104 % of HoCon Ab (=100) | B18
103 % of HoCon Ab (=100) | B19
106 % of HoCon Ab (=100) | B20
107 % of HoCon Ab (=100) | B21
98.2 % of HoCon Ab (=100) | B22
106 % of HoCon Ab (=100) | B23
103 % of HoCon Ab (=100) | B24
102 % of HoCon Ab (=100) | B25
100 % of HoCon Ab (=100) | B26
101 % of HoCon Ab (=100) | B27
111 % of HoCon Ab (=100) | B28
103 % of HoCon Ab (=100) | B29
103 % of HoCon Ab (=100) | B30
